According to patent US12637502B2, “Netrin G1 polypeptides” (Institute For Cancer Research, priority 2019, dated 2026):

B1: recombinant NGL1: recombinant Netrin G1 ligand (NGL1) protein added to EVs or cell cultures (protein)
chain: QTCPSVCSCSNQFSKVICVRKNLREVPDGISTNTRLLNLHENQIQIIKVNSFKHLRHLEILQLSRNHIRTIEIGAFNGLANLNTLELFDNRLTTIPNGAFVYLSKLKELWLRNNPIESIPSYAFNRIPSLRRLDLGELKRLSYISEGAFEGLSNLRYLNLAMCNLREIPNLTPLIKLDELDLSGNHLSAIRPGSFQGLMHLQKLWMIQSQIQVIERNAFDNLQSLVEINLAHNNLTLLPHDLFTPLHHLERIHLHHNPWNCNCDILWLSWWIKDMAPSNTACCARCNTPPNLKGRYIGELDQNYFTCYAPVIVEPPADLNVTEGMAAELKCRASTSLTSVSWITPNGTVMTHGAYKVRIAVLSDGTLNFTNVTVQDTGMYTCMVSNSVGNTTASATLNVTAATTTPFSYFSTVTVETMEPSQDEARTTDNNVGPTPVVDWETTNVTTSLTPQSTRSTEKTFTIPVTDINSGIPGIDEVMKTTKIIIGCFVAITLMAAVMLVIFYKMRKQHHRQNHHAPTRTVEIINVDDEITGDTPMESHLPMPAIEHEHLNHYNSYKSPFNHTTTVNTINSIHSSVHEPLLIRMNSKDNVQETQI
B2: recombinant NetG1: recombinant Netrin G1 protein added to EVs or cell cultures (protein)
chain: HYDLCKTQIYTEEGKVWDYMACQPESTDMTKYLKVKLDPPDITCGDPPETFCAMGNPYMCNNECDASTPELAHPPELMFDFEGRHPSTFWQSATWKEYPKPLQVNITLSWSKTIELTDNIVITFESGRPDQMILEKSLDYGRTWQPYQYYATDCLDAFHMDPKSVKDLSQHTVLEIICTEEYSTGYTTNSKIIHFEIKDRFAFFAGPRLRNMASLYGQLDTTKKLRDFFTVTDLRIRLLRPAVGEIFVDELHLARYFYAISDIKVRGRCKCNLHATVCVYDNSKLTCECEHNTTGPDCGKCKKNYQGRPWSPGSYLPIPKGTANTCIPSISSIGNCECFGHSNRCSYIDLLNTVICVSCKHNTRGQHCELCRLGYFRNASAQLDDENVCIECYCNPLGSIHDRCNGSGFCECKTGTTGPKCDECLPGNSWHYGCQPNVCDNELLHCQNGGTCHNNVRCLCPAAYTGILCEKLRCEEAGSCGS

Experiments:
[1] = test system: CAFs; assay: Cytokine secretion by CAFs treated with sNG1 or NetG1 peptides (ELISA); format: cell-based; details: CAFs treated 7 days, media conditioned 2 days, vs CON
Experimental: 1.6×10^5 Control (CON) or NetrinG1 Ligand knockdown (NGL1 KD) CAFs were plated into 24 well plates and allowed to produce matrices in the presence of 50 μg/mL of ascorbic acid and were either untreated or treated with either soluble NetrinG1 (sNG1), NetG1 peptide corresponding to a domain known to engage with NGL1 (NPYMSNNE; SEQ ID NO:26; (FITC)—Ba-Asn-Pro-Tyr-Met-Ser-Asn-Asn-Glu-(NH2)), hypothesized to modestly prevent NetG1/NGL1 interaction (peptide), or a modified NetG1 peptide (NPTMSNNE; SEQ ID NO:27; (FITC)—Ba-Asn-Pro-Thr-Met-Ser-Asn-Asn-Glu-(NH2)) suspected to strongly prevent NetG1/NGL1 engagement (mutant), for 7 days. […] The media was then replaced with serum- and glutamine-free media and CAFs were allowed to condition the media for 2 days. Conditioned media was collected from each well and subjected to ELISA for the measurement of cytokine (TGF-β, IL-6, and IL-8) secretion. […] 01, *** p<. 001, **** p<. 0001. N=3-6.

[2] = test system: CAF EVs; assay: Clustering of CAF-secreted EVs treated after collection; details: CAF EVs incubated with the agent following their collection
[3] = test system: CAFs; assay: EV production by CAFs treated with recombinant NGL1; format: cell-based
[4] = test system: CAFs; assay: CAF blebbing under 3D conditions; format: cell-based, human
Excerpt: The phenotype is believed to indicate fibroblastic function after NGL1 engagement from other cells (like tumor cells). Similar effects were observed when cancer cells were co-cultured with CAFs using CAF-derived matrices as culturing scaffolds.

[5] = test system: virus infected neurons; assay: Synapse-dependent viral transmission between neurons; format: cell-based; details: neurons only, FIG. 3A/3C
Experimental: (§1) Viral transmission was used as a test to investigate the formation of functional synapses. […] The same experiment, as in Panel A, was conducted, except that virus (red) infected neurons (green) were plated onto a CAF culture bed (evident in transmitted microscopy images shown in bottom panels) to assess heterotypic neuron-CAF functional synapse formation (evidence by red virus spread into CAFs) while untreated (left) or treated with recombinant NGL1 (middle) or NetG1 (right) (Panel B).

[6] = test system: virus infected neurons plated onto a CAF culture bed; assay: Heterotypic neuron-CAF functional synapse formation (virus spread into CAFs); format: cell-based; details: FIG. 3B/3D
Experimental: as §1

[7] = test system: PDAC cancer cells; assay: Rescue of starvation-induced death of PDAC cancer cells by CAF-produced EVs; format: cell-based
Excerpt: PDAC cells die in the absence of nutrition but can be rescued using EVs secreted by intact CAFs. If CAFs are deficient in NetG1 expression, the resultant EVs fail to rescue PDAC cells from starvation. […] The pharmaceutical agents set forth herein will prevent the NetG1/NGL1 engagement and, thus, serve as therapeutics that will assure PDAC cells will not survive under nutritional stress as in vivo.

[8] = test system: T cells from murine spleens; assay: T cell activation with CD3/CD28; format: cell-based; details: recombinant NetG1 present during activation

Row | Molecule | secreted IL-6 [1] | secreted IL-8 [1] | secreted TGF-β [1] | EV clustering [2] | clustering of EVs produced by treated CAFs [3] | number of EVs produced [3] | CAF blebbing (membrane ruffling or protruding) ([4]; 3D conditions that enable NetrinG1 expression in CAFs) | CAF blebbing in NetG1 KO CAFs ([4]; same treatment, NetG1 KO CAFs) | virus transmission via functional synapses between neurons [5] | functional synapses between neurons and fibroblasts (virus spread into CAFs) [6] | effectiveness of CAF-produced EVs in rescuing starvation-induced death of PDAC cancer cells ([7]; EVs pre-incubated with recombinant NGL1) | effectiveness of EVs from NetG1 deficient CAFs (NG1KO) in rescuing starvation-induced death of PDAC cancer cells ([7]; recombinant NetG1 treatment of KRAS-transformed pancreatic cells) | T cell activation (proliferation) by CD3/CD28 [8]
1 | NPTMSNNE (NetG1 polypeptide) [SEQ ID NO:27] | significant decreases | significant decreases | significant decreases | – | – | – | – | – | – | – | – | – | –
2 | NPYMSNNE (NetG1 polypeptide) [SEQ ID NO:26, NetG1 peptide corresponding to a domain known to engage with NGL1] | significant decreases | significant decreases | significant decreases | – | – | – | – | – | – | – | – | – | –
3 | B1 | – | – | – | enables small NetG1 positive (i.e., exomeres) | induced some clustering | production of increased numbers of EVs | induced CAF blebbing | blebbing was not observed | limited virus transmission | prevented | tends to decrease | – | –
4 | B2 | – | – | – | only clusters exosomes | – | – | – | – | limited virus transmission | prevented | – | improves the effectiveness of EVs | activation is prevented
